Measurements from the nanobody polyreactivity screen of Harvey et al. (2022).

test: yeast display, Sf9 membrane polyspecificity reagent, FACS + sequencing; frameworks hold sequencing errors
Outline: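 A synthetic nanobody library was expressed on Saccharomyces cerevisiae BJ5465 by galactose induction for 36–48 hours. The library was stained for 1 hour at 4 °C with 10% biotinylated, detergent-solubilized Sf9 membrane reagent and enriched with streptavidin microbeads before FACS. Low and high (top ~1%) gates were set on anti-HA fluorescence for expression and streptavidin fluorescence for reagent binding, and each polyreactivity label reflects the gate of origin.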

Sequence	polyreactivity (PSR sort gate)
QVQLEESGGGLVQAGGSLRLSCAASGFTFTRNAMGWYRQAPGKERELVAAISRGGSTNYADSVQGRFRISSDNAKNTVYLQMNSLKPEDTAVYYCAKVRTRATPGVDYYYWGQGTQVTVSS	high polyreactivity
QVQLVESGGGLVQAGGSLRLSCAASGRNIYSNAMGWYRQAPGKERELVAAIRWRDGATYYADSVKGRFTISRDNAKNTVYLQMNSLKPEDTAVYYCAAVYWGEEYEYWGQGTQVTVSS	low polyreactivity
QDQLVESGGGLVQAGGSLRLSFAASGSTFVRYAMVWYRQAPGKERELVAAISRSGGSTYYADSVKGRFTISRDNAKNTVYLQMNSLKPEDTAVYYCAARLVYSGRDRGYDYWGQGTQVTVSS	high polyreactivity
QVQLVESGGGLVQAGGSLRLSCAASGRIFGGYAMGWYRQAPGKERELVPSITGRATSTYYADSVKGRFTISRDNAKNTVYLQMNRLKPEDTAVYYFNALYRKYRNQWYISNYGYYYWGQGTQVTVSS	low polyreactivity
QVHLVQTRGGLVQAGGSLRLSCAASGLTFTYYAMGWNRPEPGKERQLVSAISSSGSDTYYADSVKGRFTISRDYALNTVYFQMNSLKTEDTAVYYCAAVLTALSPDFEYEYWGQGTQVTVSS	low polyreactivity
QVQLVESGGGLVQAGGSLRLSCAASGSTFNKYAMGWYRQAPGKERELVAAISSSGGSTYYADSVKGRFTISRDNAKNTVYLQMNSLKPEDTAVYYCNARRTYSVPARRYYYWGQGTQVTVSS	high polyreactivity
QVQLVESGGGLFKAGGSLRLSCAASGFNFSNYAKGWYRQAPGKERELVATISWSGGRTYYADSVKGRFTISRDNAKNTVYLQMNSLKPEDTEVYYCAAEYYTGYFKYDYWGQGTQVTVSS	high polyreactivity
QVQLVESGGGLVQAVGSLRLSCAASVSTFRHYAMGWYRQAPGKERELVAAISSTGGSTYYADSVKGRFTISRDNAKNTVYLQMNSLKPEDTAVYYCAARRLYWGQGTQVTVSS	high polyreactivity
QVKLVESGGGLFQAGGSLRLSCADSGRTFYYYGMPWYIQETGKERELVAAINRGDSTKYADSVKGRFTISLDNAKNNVYLHMNSLKPEDTAVYYCNARLRCSFARFIYEYWRQGTQVTVSS	low polyreactivity
QVHLVESGGGLVQAGGSLRLSCDASGSIFASNTMGWYRQEPGQERELVAGITKIGSSTYYADSVKGRFTISRDHAKNTVYLKMNSLTPEDTAVYYCNAYGPNIYSSRYEYWGQGTQVTVSS	low polyreactivity
QVQLVESGGGLVQAGGSLRLSCAASGIIFYLYAMGWYRQAPGKERELVAAITLSGSTTYYADSVKGGFTISRDNAKNTVYLQMNSLKPEDTAVYYCNADTPVRSDYWGQGTQVTVSS	low polyreactivity
QGQLVESGGGLVQAGGSLRLSCAASGSILLYYAMGWYRQAPGKEWELVAAITGGGGTNYADAGKGRFTISRDNAKNTVYLQMNSLIPEDTAVYYCAADPSGQFPYSYYNYDYDYWGQGTQVTVSS	low polyreactivity
QVQLVESGGGLVQAGGSLRLSCAASGFIFSSYAMGWYRQAPGKEMELVAAISWSGGRTYYADPVKGRFTISRDNAKNTVYLQLNSLKPEDTAVYYCNARYPYPYWYTSYDYWGQGTQVTVSS	high polyreactivity
QVQLVESGGGLVQAGGSLRLSCAGSGSIFYSNAMGWSRPAPGKERELVAAICWNGGRTYYADSVKGRFTISRDNAKNTVYLQMNSLKPEDTAVYYCAAKYRNRYDYWGHGTQVTVSS	low polyreactivity
QGQLVESGGGLFQAGGSLSLSCASSGRTITHNVMGWYRQAPGKEMELVAGISSTGGSTYYADSVKGRFTISRDNSKNTVYLQMNSLKPEDTAVYYCAKEYYDGYFPSFDYEYWGQGTQVTVSS	low polyreactivity
QVQLVESGGGLVQAGGSLRLSCAASGSTFTRYAMGWNRQAPGKARELVAAINWSGTSTYYADSVKGRFTISRDNAMNTVYLQMNSLKPEATAVYYSNAYTVRSYRFDYWGQGTQVTVSS	high polyreactivity
QVQLVESGGGLVQAGGSLRLSCAASGSTFTQYVMGWYRQAPGKERDLVAAISDSGSTYYADSVKGRFTISRDNAKNTVYLQMNRLKPEDTAVYFCNADDVDFYYGYGYLDYDYWGQGTQVTVSS	low polyreactivity
QVQLEESGGVLVQAGGSLRLSCAASGRTFGHYAMGWYRPAPGKERELVAAITRDDGTNYADSVKGRFTISGDNAKNTVYLQMNRLKPEDTAVYYCNADVWLRRVYDYWGQGTQVTVSS	low polyreactivity
QVQHVESGGGLDQAGGSLRLSCAASGSIYVGNEMGWSRQATGKETELVDTISWSGGSTYYADSVKGRFTISRDNAKNTVYLQMNSLKPEDTAVYYCAKTPYRRYRYGGYNYRTYDYWGQGTQVTVSS	low polyreactivity
QVQLVESGGGLVQAGGSLRLSCAASGSTFAYYTMGWYRQAPGKERELVAAISKSGGSTTYADSVKGRFTISRDNAKNTVYLQMNSLKPEDTAVYYCAAYDRVENYNYWGQGTQVTVSS	high polyreactivity
QVQLVESGGGLVQAGGSHRLSCAASGRTFGYYAMGWYRQAPGKEREFVAAISWSGGSTYYADTVKGRFTISRDNAKNTVYLEMNSLKPEYTAVYYCATDTTYYAGSWYGYWGQGTQVTVSS	low polyreactivity
QVQLVESGGGLVQAGGSLRLSCAASGSILDGYAMGWYIQAPGKARELVAAITTGGGSTYYADSVKGRFTISRDNAKNTVYLQMNSLKPEDTAVYYCAAYRKPGSWTWWVRGYGYWVQGTQVTVSS	low polyreactivity

Sequence	polyreactivity (PSR sort gate)
QVQLVESGGGLVQAGGILRLSCASSGSTFGYNVMGWYRQAPGKERELVAAISSSGGSTYYADSVKGRFTISRDTAKNTVYLQMNSLNPEDTAVYYGAADVGFRWYRYTAGPLEYDYWGQGTQVTVSS	high polyreactivity
QVQLVESGGGLVQAGGSLRLSCAASGNTFGIYAMGWYRPAPGKERELVAAISSGTSTNYADSVKGRFTISRDNAKNTVYLQMNSLKPEDTAVYYCNADDQYQDVREDYWGQGTQVTVSS	low polyreactivity
QVQLVESGGGLVQAGGSLRLSCAASGRTNRFYAMGWYRPAPGNERELVAAIRNGGRTNYADSVKGRFTIARDNAKNTVYLQMNSLKPEDTAVYSCAKQPGISYRHYDYWGQGPQVTVSS	high polyreactivity
QVQLEESGGGLVQAGGSLRLSCAASGSIIDYYAMGWYRQAPGKERELVADITVTGDGTYYADSVKGRFTISRDNAKNTVYLQMNSLKPEDTAVYYCAADFWLVSFQWDFEYDYWGQGTQVTVSS	low polyreactivity
QVQLLESGAGLVQAGGSLRLICAASVNTFYWYAMGRYRQAPGKERELVAAITWSGGSTHYADSVKGRFTISRDNAKNTVYLQMNSLTPEYTAVYYCAARYFRWWDMGYWGQGTQVSVSS	high polyreactivity
QVQLVESGGGFVQAGGSLRLSCAASGNIFESYGMGWYRHAPGKERELVATINSSSGSTYYADSVKGRFTISRDNAKNTVYLQMNSLKPEDTAVYYCAAEWYPYPWGYGYWGQGTQVTVSS	low polyreactivity
QVQLVESGGGLVQAGGSLRLSCAASGRIFYRNAMGWYRQAPGKERELVAAISYSGGRTYYADSVKGRFTISRDNAKNTVYLQMNSLKPEDTAVYYCAARYAWGYVDPGDYWGQGTQVTVSS	high polyreactivity
QVQLVESGGGLVQAGGSLRLSCAASVGTFSPNTMGWYRQAPGKERELVAAISSSGSTSYADSVKGRFTISRDNAKNTVYLQMNSLKPEDTAGYFCNADDTISYYASGFDNYDYWGQGTQVTVSS	low polyreactivity
QVQLVESGGGLVQAGGSLRLSCAASGRIFGYYAMGWYRQAPGKERELVAAISSSGGSTYYADSVKGRFTISRDNAKNTVYLQMNSLKPEDTAVYYCAREFSDGLSGKFDYWGQGTQVTVSS	low polyreactivity
QGQLVESGGGFVQEGGSLRLSCAASRSIFRLYAMGWYRQAPGKEREFVARLRWRGGSTNYADSVKGRFTISRDNAKKTVYLQMNSLKPEDTAVYYCNARGRSGGGRYDYWGQGTQVTVSS	high polyreactivity
QVQLVESGGGLVQAGGSLRLSCAATARNFYRYAMAWYRQAPGKERELVARITSAGSTDYADSVKGRFTISRDNAKNTVYLQMNSLKPEDTAVYYCAAFGFSYRTFWYDYWGQGTQVTVSS	high polyreactivity
QVQLVESGGGLVQAGGSLRLSCADSGSIFFPYAMGWYRQAPGKERYLVAAISSGTSTYYADSVKGRFTISRDNAKNTVYLQMNSLKPEDTAVFYCNARHRRGRFTHDYDYWGQGTQVTVSS	low polyreactivity
QVQLVESGGGLVQAGGSLRLSCAASGRTFIPYAMGWYRQAPGKERELVATISRSGGSTYYADSVKGRFTISRDNAKNTVYLQMNSLKPEDSAVYYCAAQWVRKSGREGYWGQGTQVTVSS	high polyreactivity
QVQLVESGGGLVQAGGSLRLSCAASGSTFLAYAMGWYRQAPGKERELVAAISSRGSRTYYADSVKGRFTISRDNAKNTVYLQMNSLKPEDTAVYYCATPYSRSYSYRYDYWGQGTQVTVSS	high polyreactivity
QVQLVESGGGLVQAGGSLRLSCAASGGTFSYYAMGWYRQAPGKGELVAAISSGGSTNYADSVKGRFTISRDNAKNTVYLQMNSLKPEDTAVYFCAARYRFWGPYNYWGQGTQVTVSS	high polyreactivity
QVQLVESGGGLVQAGGSLRLSCAASGRIFKVYTMGWYRQAPGKERELVATITRSGTSTYYADSVKGRFTISRDIAKNTVYLQMNSLKPEDTAVYYCARLVGYKFSYDYWGQGTQVTVSS	high polyreactivity
QVHLVESGGGLVQAAGILRLSSAASGFTFVPYAMGWYRQAPGKERELVAAISWRRGSTYYADSVKGRFTISRDNAKITVYLQMNSLKPEDSGVYYGDDQYFSRSGYWGQGTQVTVSS	high polyreactivity
QVQLVESGGGLVQAGGSLRLSCAASGSIFTYYAMGWYRQAPGKEREFVAAISRRGGSTYYADSVKGRFTISRDNAKNTVYLQMNSLKPEDTAVYYCAADRWTRTLVKVIGRYYYWGQGTQVTVSS	high polyreactivity
QVQLVESGGGLVHSGGSLRLSCAASGSIFDYYAMGLYRQAPGKERELVAAISWRGGTTYYADSVKGRFTISRDNANNTVFLQMNRLKPEYTAVYYCNADKRFRRYDYWGQGNQVTVSS	high polyreactivity
QVQLVESGGGLVQAGGSLRLSCAASGSTFGANAMGWYRQAPGKEREFVAAISRSGVRTYYADTVKGRFTMSRDNAKITVYFQMNSLKPEDTAVYYCAADGYWWTYTRYDYWGQGTQVTVSS	low polyreactivity
QVQLVESGGGLVQAGGSLRLSCAASGSIFEWYAMGLYRQAPGKETELVAAISSGGRTYYADSVKGRFTISRDNAKNTVYLQMNSLKPEDTAVYYCAGRDVDHVGGSKYYYWGQGTQVTVSS	high polyreactivity
